The target in the data set is thrombin (bovine (plasma), UniProt P00735;P00735 318-366;367-625). In words: graphene oxide displacement fluorescence assay (NMM/G-quadruplex readout); graphene oxide, NMM; not given in the material (S incubated with GO for 30 min; NMM ex/em 399/610 nm). The conditions noted are these: protein: commercial; copies: 1;1; label: none (label-free; NMM as G4 reporter); G-quadruplex (Se part).

With AGTCCGTGGTAGGGCAGGTTGGGGTGACTGGGTAGGGCGGGTTGGG (structured_DNA) [S (thrombin aptamer Sa + G-quadruplex part Se)], the binding result is listed as “binds”.
